Data published in patent publication US11224662B2, “Methods and therapeutics comprising ligand-targeted ELPs” (priority 2012, dated 2022).

Assays:
LG of BALB/c mice = assay: In vivo retention in the lacrimal gland after intra-lacrimal gland injection; set-up: species or system mouse; settings: 5 μL of 50 μM rhodamine-labelled, 1 h, compared with untargeted S48I48
Procedure: Twelve-week-old male BALB/c mice were administered, by intra-lacrimal gland injection, 5 μL of 50 μM rhodamine-labelled S48148 or rhodamine-labelled knob-S48148 (red) combined with 50 μg CF-dextran (10 kD, green). After 1 h, mice were euthanized and the glands were retrieved, embedded into the O.C.T. compound (Tissue-Tek), and frozen on dry ice. The frozen tissue blocks were cut into 10 μm thick sections and imaged using confocal fluorescence microscopy. The white arrows indicate endocytosed S48148 or knob-S48148 nanoparticles. The bar represents 10 μm. […] For this experiment, the mice were euthanatized by intraperitoneal injection with 55 mg ketamine and 14 mg xylazine per kilogram of body weight, followed by cervical dislocation. 5 μL of 50 μM rhodamine labelled knob-S48148 or S48148 was injected into the lacrimal glands of mice. After 60 minutes, the tear was collected from one eye of mouse by adding Carbachol into the related lacrimal gland. For another gland, it was removed after the tear collection was done at the first eye. After removal, LGs were snap frozen and stored on the dry ice. The frozen glands were cut into 10 μm thick sections and mounted on glass slides. Then the sections were examined with a confocal laser scanning microscope (LSM) at excitation wavelengths of 488 and 534 nm.

[1] = Temperature-dependent optical density (turbidity) of ELP fusion peptides; type: physicochemical; settings: 25 μM in PBS; for Transition Temperature T1: first phase transition; for Transition Temperature T1 / Transition Temperature T2: optical density; for Transition Temperature T2: second phase transition
Procedure: (§1) To explore the temperature-dependent phase behavior of the ELPs, optical density and hydrodynamic radius were observed over a range of temperatures. Knob-S96, S48148 and knob-S48148 were diluted to 25 μM in PBS on ice and the absorbance at 350 nm was monitored with a DU800 UV-Vis spectrophotometer (Beckman Coulter, Brea, Calif.) at a temperature gradient of 1° C./minute. […] Then 90 μL sample of was transferred into a 384 well microplate and covered with 20 μL mineral oil. The microplate and mineral oil were pre-chilled at 4° C. at least for 1 hour. The microplate was centrifuged at 4° C. to remove air bubbles from samples before and after addition of mineral oil. Then the sample was measured in a DynaPro plate reader (Wyatt Inc., Santa Barbara, Calif.) at temperature intervals of 1° C. The resulting hydrodynamic radii were collected and analyzed by Dynamics (Wyatt Inc., Santa Barbara, Calif.).

[2] = test system: lacrimal gland acinar cells (LGACs); assay: Suppression of transcytosis by Myosin Vb tail overexpression in LGACs; type: cell-based, rabbit; settings: 30 μM Cy5-conjugated, 60 minutes at 37° C.
Procedure: To obtain the indication of lumen area of LGACs, the cells were also pre-infected with Adenovirus EGFP-actin and helper virus at a 37° C. incubator with 5% CO2 overnight. To avoid the clash of fluorescence colours, the knob-S48148 used in transcytosis inhibition was conjugated with Cy5. The LGACs were grown on 35 mm glass-bottomed dishes for two days. Adenovirus EGFP-actin and helper virus with or without adenovirus mCherry Myosin Vb tail were added into dishes and cultured overnight. After waiting for expression of fluorescence, confocal microscopy was used to make sure adenovirus mCherry-myosin Vb tail and adenovirus EGFP-actin grow in LGACs. On the third day, knob-S48148 conjugated with Cy5 was then mixed with the cold medium at a concentration of 30 μM, warmed to 37° C. and then added into dishes. After 60 minutes incubation in a 37° C. incubator with 5% CO2, LGACs were thoroughly rinsed with fresh warm medium then immediately imaged under a Zeiss LSM 510 Meta confocal microscope system, which is equipped with argon and red and green He—Ne lasers and mounted on a vibration-free table. All images were captured under the confocal microscope and processed using ImageJ (NIH, USA).

[3] = test system: transformed mouse hepatocytes; assay: Live cell uptake of rhodamine-conjugated ELP/knob-ELP in hepatocytes; type: cell-based; settings: 10 μM rhodamine-labeled, 30 minutes at 37° C., confocal microscopy, LYSOTRACKER green
Procedure: To track cellular uptake, the ELPs S48148 and knob-S48148 were conjugated with a detectable label, NHS-Rhodamine (Thermo Fisher Scientific Inc, Rockford, Ill.) via covalent modification of primary amines at the amino end of the peptide. For S48148, the only available amine is at the amino terminus; however, knob-S48148 has an additional 11 lysine residues that may be sites of modification. The conjugation was performed in 100 mM borate buffer for 2 hours at 4° C., and the conjugated ELP was separated by size exclusion chromatography on a PD10 desalting column (GE Healthcare, Piscataway, N.J.).
To observe uptake into mouse hepatocytes, cells were cultured on 35 mm glass coverslip-bottomed dishes with medium [(DMEM (4.5 g/L) containing 10% fetal bovine serum, g/ml insulin, and 0.02 [μg/ml epidermal growth factor]. Uptake studies were conducted when hepatocytes reached 70% confluence. After washing with warm fresh medium, hepatocytes were cultured in medium containing 10 μM of either S48148 or knob-S48148 conjugated with rhodamine, and 75 nM LYSOTRACKER® green. After 30 minutes incubation at 37° C., the cells were rinsed with warm fresh medium to remove the free knob-ELP/ELP in the medium. Next cells were incubated with 75 nM LYSOTRACKER® green in a 37° C. incubation chamber. […]

[4] = biological target: T1, coxsackie adenovirus receptor (CAR) (Mus musculus, UniProt P97792); assay: Competitive binding and uptake with anti-mouse CAR antibody in hepatocytes; type: cell-based; settings: 20 μg/mL anti-mouse CAR antibody 30 minutes at 37° C., then 10 μM rhodamine-conjugated knob-S48I48
T1 construct: This study was carried out in transformed mouse hepatocytes because of the high expression of CAR; endogenous in cells; host or cells: transformed mouse hepatocyte cell line
T1 sequence (P97792 20-365): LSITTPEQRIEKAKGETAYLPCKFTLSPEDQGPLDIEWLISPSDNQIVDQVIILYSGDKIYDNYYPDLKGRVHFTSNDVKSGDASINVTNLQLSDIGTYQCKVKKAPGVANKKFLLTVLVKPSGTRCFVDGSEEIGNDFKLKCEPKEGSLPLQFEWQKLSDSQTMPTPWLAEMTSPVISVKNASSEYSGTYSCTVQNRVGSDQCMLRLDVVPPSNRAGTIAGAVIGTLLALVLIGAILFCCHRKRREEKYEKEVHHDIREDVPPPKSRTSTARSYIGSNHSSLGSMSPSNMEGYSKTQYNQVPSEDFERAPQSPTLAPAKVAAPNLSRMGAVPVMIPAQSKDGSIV
Procedure: After confirming that the goat anti-mouse CAR antibody has a high affinity with the mouse hepatocytes, the anti-mouse CAR antibody (0.2 mg/mL) was diluted with warm medium 10-fold and incubated with the hepatocytes for 30 minutes at 37° C. Knob-S48148 conjugated with rhodamine was then added to the medium at a concentration of 10 μM. After 30 minutes incubation with knob-S48148 and 75 nM LYSOTRACKER® green, the hepatocytes were rinsed, then incubated in fresh warm medium with 75 nM LYSOTRACKER® green and imaged as described above.

[5] = Dynamic light scattering of ELP nanoparticles; type: physicochemical
Procedure: as §1

B1: knob-G(VPGSG)48(VPGIG)48Y (SEQ ID. NO: 10) (protein)
chain: GVPGSGVPGSGVPGSGVPGSGVPGSGVPGSGVPGSGVPGSGVPGSGVPGSGVPGSGVPGSGVPGSGVPGSGVPGSGVPGSGVPGSGVPGSGVPGSGVPGSGVPGSGVPGSGVPGSGVPGSGVPGSGVPGSGVPGSGVPGSGVPGSGVPGSGVPGSGVPGSGVPGSGVPGSGVPGSGVPGSGVPGSGVPGSGVPGSGVPGSGVPGSGVPGSGVPGSGVPGSGVPGSGVPGSGVPGSGVPGSGVPGIGVPGIGVPGIGVPGIGVPGIGVPGIGVPGIGVPGIGVPGIGVPGIGVPGIGVPGIGVPGIGVPGIGVPGIGVPGIGVPGIGVPGIGVPGIGVPGIGVPGIGVPGIGVPGIGVPGIGVPGIGVPGIGVPGIGVPGIGVPGIGVPGIGVPGIGVPGIGVPGIGVPGIGVPGIGVPGIGVPGIGVPGIGVPGIGVPGIGVPGIGVPGIGVPGIGVPGIGVPGIGVPGIGVPGIGVPGIGY
notes: assembles into nanoparticles
With B1 the “retention in lacrimal gland (accumulation, surface association, internalization)” value (LG of BALB/c mice) was “stronger apical-membrane/luminal accumulation, surface association, and internalization”, the “Transition Temperature T1” value [1] was 19.5 °C and the “Transition Temperature T1” value ([1]; listed as Knob-S48148) was “around 19.5 °C”. For the same molecule, the Critical aggregation temperature ([1]; optical density at 350 nm by UV-Vis spectrophotometer) was 19.5 °C, the “Transition Temperature T2” value [1] was 60 °C and the “Transition Temperature T2” value ([1]; listed as Knob-S48148) was “around 60 °C”. For the same molecule, the “transcytosis with overexpressed mCherry myosin Vb tail” value [2] was “significantly reduce the transcytosis”, the “cellular uptake / fluorescence localisation” value [3] was “significant cellular uptake” and the “intracellular knob-S48I48 fluorescence after anti-mouse CAR antibody pre-incubation” value [4] was “reduced the intracellular punctate fluorescence”. The “size by dynamic light scattering (BSA; unimers of the ELPs)” value ([5]; BSA stable from 10 to 37° C., ELPs as unimers below assembly temperature) was “around 4 nm”, the “critical nanoparticle temperature (CNT)” value ([5]; dynamic light scattering) was 19.5 °C and the “Hydrodynamic radius (nm) at 37° C.” value ([5]; dynamic light scattering, 25 μM in PBS, 37° C.) was 21.7 nm. For the same molecule, the “hydrodynamic diameter of nanoparticles” value ([5]; dynamic light scattering, self-assembled nanoparticles) was “around 40 nm”.
